Source: publication PMC5824745

Assays:
rpL13a = rpL13a (UniProt P19253); test: m7GDP-agarose cap pull-down, immunoblot; conditions: reference: wild-type mouse forebrain; sites S209
Gapdh = Gapdh (UniProt P16858); test: m7GDP-agarose cap pull-down, immunoblot; conditions: reference: wild-type mouse forebrain; sites S209
eIF4G = eIF4G (UniProt Q6NZJ6); test: m7GDP-agarose cap pull-down, immunoblot; conditions: reference: wild-type mouse forebrain; sites S209
[1] = target: eukaryotic Initiation Factor 4E (eIF4E), wild type (mouse (endogenous in forebrain)) (UniProt P63073); test: pull-down; cap-column pulldown: 500 ug forebrain lysate protein with 50 ul m7GDP agarose in buffer C (50 mM MOPS-KOH pH 7.4, 100 mM NaCl, 50 mM NaF, 0.5 mM EDTA, 0.5 mM EGTA, 0.1 mM GTP), 90 min at 4 C; eIF4E held by its ligand m7GDP; cap-bound fraction immunoblotted and quantified, normalised to input

Sequence of Gapdh, P16858 1-333 (natural protein; other documents disagree on this pair) (P16858 whole entry): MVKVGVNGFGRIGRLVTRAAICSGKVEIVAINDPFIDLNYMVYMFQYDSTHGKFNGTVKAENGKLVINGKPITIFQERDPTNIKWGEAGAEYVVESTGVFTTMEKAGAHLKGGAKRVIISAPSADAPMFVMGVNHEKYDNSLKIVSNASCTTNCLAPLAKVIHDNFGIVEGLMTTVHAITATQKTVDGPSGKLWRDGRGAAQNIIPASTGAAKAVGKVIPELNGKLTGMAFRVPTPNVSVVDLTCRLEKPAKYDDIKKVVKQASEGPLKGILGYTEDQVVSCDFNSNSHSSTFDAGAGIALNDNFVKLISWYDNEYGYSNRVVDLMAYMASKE

other: cap-bound band intensity normalized to input (rpL13a) | other: cap-bound band intensity normalized to input (Gapdh) | other: cap-bound band intensity normalized to input (eIF4G) | cap-bound protein (arbitrary units, normalised to input) (arbitrary units) [1] | Substance
weaker; reference 0.9975 ± 0.1723 | same; reference 0.998 ± 0.254 | same; reference 1.002 ± 0.149 |  | eIF4E (from UniProt P63073) 4Eki (S209A knock-in) forebrain
 |  |  | 0.998 | Gapdh, P16858 1-333 (natural protein; other documents disagree on this pair)
